Assay results reported in patent publication US20260028391A1 (HUMABS BIOMED, published 2026).
Positions count from the first letter of the chain named. In names and notes the source's numbering stands.

Assays:
[1] = molecular target: RSV A fusion glycoprotein (F), virus of the neutralisation assays of Tables 54 and 57 (RSV A); experiment: cell-based or functional assay
[2] = molecular target: RSV-B B18537/62 F protein (RSV B, strain B18537/62, UniProt P13843 26-574); experiment: cell-based or functional assay
RSV-B B9320 F protein = RSV-B B9320 F protein (RSV B, strain B9320); experiment: cell-based or functional assay
[3] = molecular target: RSV-long strain fusion glycoprotein (F) (RSV, long strain, UniProt P12568 26-574); experiment: cell-based or functional assay
RSV F B, B Ref = molecular target: T1, RSV F B, B Ref (RSV B); experiment: FACS, % binding to RSV F B variants
T1 construct: whole, on cells

RSV F B K68N-N201S = molecular target: T2, RSV F B K68N-N201S (RSV B); experiment: FACS, % binding to RSV F B variants
T2 construct: whole, on cells

RSV F B K68N-N208S = molecular target: T3, RSV F B K68N-N208S (RSV B); experiment: FACS, % binding to RSV F B variants
T3 construct: whole, on cells

RSV F B N201S = molecular target: T4, RSV F B N201S (RSV B); experiment: FACS, % binding to RSV F B variants
T4 construct: whole, on cells

RSV F B N208D = molecular target: T5, RSV F B N208D (RSV B); experiment: FACS, % binding to RSV F B variants
T5 construct: whole, on cells

RSV F B N208S = molecular target: T6, RSV F B N208S (RSV B); experiment: FACS, % binding to RSV F B variants
T6 construct: whole, on cells; also called mutant N208S

RSV F B S443P = molecular target: T7, RSV F B S443P (RSV B); experiment: FACS, % binding to RSV F B variants
T7 construct: whole, on cells; also called mutant S443P

[4] = molecular target: T8, MPV F D280N mutant expressed on Expi293F transfected cells (metapneumovirus (MPV), strain ); experiment: FACS on Expi293F cells transfected with MPV-F D280N; mouse serum taken 2 h after injection
T8 construct: whole, on cells; also called MPV D280N F; D280N F

[5] = molecular target: T8, MPV F D280N mutant expressed on …; experiment: FACS on Expi293F cells transfected with MPV-F D280N; mouse serum taken 56 d after injection
[6] = molecular target: RSV A2 (screening GFP strain) fusion glycoprotein (F) (RSV A); experiment: cell-based or functional assay
[7] = molecular target: RSV B (screening GFP strain) fusion glycoprotein (F) (RSV B); experiment: cell-based or functional assay
[8] = molecular target: RSV A 2001/3-12 fusion glycoprotein (F) (RSV A, strain A 2001/3-12); experiment: cell-based or functional assay
[9] = molecular target: RSV A1997/12-35 fusion glycoprotein (F) (RSV A, strain A1997/12-35); experiment: cell-based or functional assay
[10] = molecular target: RSV A1998/3-2 fusion glycoprotein (F) (RSV A, strain A1998/3-2); experiment: cell-based or functional assay
[11] = molecular target: RSV A2 VR 1540 fusion glycoprotein (F) (RSV A, strain A2 (VR 1540), UniProt P03420 26-574); experiment: cell-based or functional assay
[12] = molecular target: RSV A 2000/3-4 fusion glycoprotein (F) (RSV A, strain A 2000/3-4); experiment: cell-based or functional assay
[13] = molecular target: RSV Ds Red 5 fusion glycoprotein (F) (RSV, strain printed as Ds Red 5); experiment: cell-based or functional assay
RSV-A F = molecular target: T9, RSV-A F (RSV A); experiment: affinity; method not given
T9 construct: also called RSV F A

RSV-B F = molecular target: T10, RSV-B F (RSV B); experiment: affinity; method not given
T10 construct: also called RSV F B

[14] = molecular target: RSV A Randall fusion glycoprotein (F) (RSV A, strain Randall); experiment: cell-based or functional assay
[15] = molecular target: RSV B 9719/09 fusion glycoprotein (F) (RSV B, strain 9719/09); experiment: cell-based or functional assay
[16] = molecular target: RSV A2 BPR-344-00 (BEI NR-12149) fusion glycoprotein (F) (RSV A, strain A2, UniProt P03420 26-574); experiment: cell-based or functional assay
[17] = molecular target: RSV B1 BPR-348-00 (BEI NR-4052) fusion glycoprotein (F) (RSV B, strain B1, UniProt O36634 26-574); experiment: cell-based or functional assay
[18] = molecular target: T11, RSV fusion glycoprotein (RSV-F), pre-fusion conformation, recombinant protein loaded on sensors (respiratory syncytial virus (RSV), …); experiment: method not said in the sentence; RSV-A as printed
T11 construct: also called RSV-F wt; RSV-F protein

DS-Cav1 RSV F = DS-Cav1 RSV F (respiratory syncytial virus (RSV); …, UniProt P13843 26-513); experiment: ELISA on RSV-F Ds-Cav1, 1 ug/ml
[19] = molecular target: T11, RSV fusion glycoprotein (RSV-F), …; experiment: ELISA-type titration, OD 405 nm, on Pre-F
[20] = molecular target: post-fusion RSV F protein (respiratory syncytial virus (RSV), …); experiment: ELISA-type titration, OD 405 nm, on Post-F

B1: MPK190-v1.3-rIgG1m17,1-LS (antibody, V domains shown)
VH: QVQLVESGGGLVKPGGSLTLSCAASGFSISGYGMNWVRQAPGRGLEWVASISASSTYIYYADSMKGRFTISRDNGKTSLYLQMKSLRAEDTAVYYCARAPIEPPYFDLWGRGTLVTVSS
VL: QSVLTQPPSVSGAPGQRVTISCTGSSSNIGAGYDVHWYQHLPGKAPKVLIYGNTNRPSVVPDRFSGSNSGASASLAISGLQAEDEADYFCQSYDRRLSGPIFGGGTKLTVLG
[1]
  IC50, neutralization of RSVA: 15.3 ng/mL
[2]
  EC50, virus neutralization (Fab testing): 0.0247 nM
RSV-B B9320 F protein
  EC50, virus neutralization (Fab testing): 0.017 nM
[3]
  EC50, virus neutralization (Fab testing): 0.105 nM
RSV F B, B Ref
  % binding: 72.1%
RSV F B K68N-N201S
  % binding: 63.3%
RSV F B K68N-N208S
  % binding: 61.5%
RSV F B N201S
  % binding: 63.1%
RSV F B N208D
  % binding: 60.5%
RSV F B N208S
  % binding: 63.4%
RSV F B S443P
  % binding: 66.7%

B2: MPK190 (antibody, V domains shown)
VH: B1 VH with Q1E
VL: QSVLTQPPSVSGAPGQRVTISCTGSNSNIGAGYDVHWYQHLPGKAPKVLIYGNNNRPSVVPDRFSGSNSGASASLAISGLQAEDEADYFCQSYDRRLSGPIFGGGTKLTVL
notes: Tested as MPK190-rIgG1-LS (IgG1 with M428L/N434S); also called MPK190-rIgG1-LS; MPK190-rIgG1-LS(4B6)
[4]
  EC50: 62 ng/mL
[5]
  EC50: 84 ng/mL

B3: MPK176-rIgG1-LS (antibody, V domains shown)
VH: QVQLVQSGAEVKKPGASVRVSCKASGYTLTAYGISWVRQAPGQGLEWMGWISPKHGNTHYAQRFQGRVTMTTDTSTSTAYMELRSLRPDDTAVYFCAREGVDIMAVPWYFDYWGQGTLVAVSS
VL: SYELTQPPSVSVAPGQTARISCGGNNIGSKSVHWYQQKPGQAPVVVVYDDSDRPSGIPERFSGSNSGNTATLTISGVEAGDEADYFCQVWDSATDHWVFGGGTKLTVL
notes: Recombinant human IgG1 with M428L/N434S (LS)
[6]
  IC50, virus neutralization: 4.15 ng/mL
[7]
  IC50, virus neutralization: 2.19 ng/mL
[8]
  IC50, virus neutralization: 2.12 ng/mL
[9]
  IC50, virus neutralization: 2.08 ng/mL
[10]
  IC50, virus neutralization: 2.45 ng/mL
[11]
  IC50, virus neutralization: 2.87 ng/mL
[12]
  IC50, virus neutralization: 2.3 ng/mL
[13]
  IC50, virus neutralization: 1.06 ng/mL
RSV-A F
  Kd: 0.0591 nM
RSV-B F
  Kd: 0.001 nM

B4: MPK65-v2-rIgG1-LS (antibody, V domains shown)
VH: QVPLVQSGAEVKKPGESLKISCKGSGYSFINYWIGWVRQMPGKGLEWMGVIYPFDSDTKYSPSFQGHVTISADKSSNTAYVQWSSLKASDTAMYYCARFTFGIAVVTDDVSGEGQAFEIWGQGTMVTVSS
VL: EIVMMQSPATLSVSPGERATLSCRASQSVAGNLAWYQQRPGQAPRLLIYGASTRATGVPARFSGSGSETEFTLTISSLQSEDFAVYYCHQYSNWPQAFGQGTRLDIK
notes: as for B3
[14]
  IC50, virus neutralization: 1.7 ng/mL
[15]
  IC50, virus neutralization: 0.741 ng/mL
[16]
  IC50, virus neutralization: 0.5 ng/mL
[17]
  IC50, virus neutralization: 0.4 ng/mL
[6]
  IC50, virus neutralization: 0.955 ng/mL
[7]
  IC50, virus neutralization: 0.607 ng/mL
[8]
  IC50, virus neutralization: 0.59 ng/mL
[9]
  IC50, virus neutralization: 0.56 ng/mL
[10]
  IC50, virus neutralization: 0.17 ng/mL
[11]
  IC50, virus neutralization: 0.95 ng/mL
[12]
  IC50, virus neutralization: 0.74 ng/mL
[13]
  IC50, virus neutralization: 0.47 ng/mL
RSV-B F
  Kd: 0.404 nM

B5: MPK201-rIgG1-LS (antibody, V domains shown)
VH: EVQLVQSGAEVKKPGESLKISCQGSGYSFINYWIGWVRQKPGKGLEWMGIIYPFDSETKYSPSFQGHVTFSADKSINTAYVQWSSLRASDTAMYYCARFTFGLAVTTADVSGEGQAFEIWGQGTMVTVSS
VL: B4 VL with I48V, T56S, Q90H, N93D
notes: as for B3
[6]
  IC50, virus neutralization: 2.83 ng/mL
[7]
  IC50, virus neutralization: 1.49 ng/mL
[8]
  IC50, virus neutralization: 1.77 ng/mL
[9]
  IC50, virus neutralization: 2.33 ng/mL
[10]
  IC50, virus neutralization: 3.01 ng/mL
[11]
  IC50, virus neutralization: 1.53 ng/mL
[12]
  IC50, virus neutralization: 1.26 ng/mL
[13]
  IC50, virus neutralization: 1.23 ng/mL
RSV-A F
  Kd: 0.001 nM
RSV-B F
  Kd: 0.001 nM

B6: MPK65-v2 (antibody, human IgG1, V domains shown)
VH: B4 VH
VL: B4 VL
notes: also called MPK65-v2-rIgG1-LS
[18]
  Kd: < 0.1 nM

B7: MPH12 (antibody, V domains shown)
VH: QVQLVESGGGLVKPGGSLRLSCVASGFTFSGFYMKWIRQAPGKGLEWVSSISASGSYTNYADSVEGRFTVSRDNAKNSLFLLMSSLRAEDTAVYYCARGDSYCGASACHGEFFHKWGQGTLVTVSS
VL: QSVLTQPPSVSGAPGQRVTISCTGSDSNIGADFDVHWYQQLPGTAPKLLIYGNINRPSGVPDRFSGSRSGTSAFLAITRLQAEDEADYYCQSYDRSLHYVFGAGTKVTVL
notes: also called MPH12-rIgG1; MPH12-rIgG1-LS
DS-Cav1 RSV F
  EC50 (read off the curve): ~2 ng/mL
[19]
  EC50 (read off the curve): ~10 ng/mL
[20]
  EC50 (read off the curve): ~30 ng/mL
